Measurements published in US20200190473A1, “Plasmacytoid Dendritic Cells Having Immune Tolerance, and Method for Producing Same” (QURATIS INC., priority 2017, published 2020).

Legend:
[1] = target: TLR2 receptor (Mus musculus, UniProt Q9QUN7); type: binding
[2] = test system: TLR2 receptor; type: binding, mouse; details: 5 μg/ml, 2 hours; compared to untreated group
[3] = test system: plasmacytoid dendritic cells; type: cell-based, mouse; details: pDC differentiated with TLR agonist on day 3, stimulated with ODN1826 (1 μg/ml), 24 hours, ELISA; vs conventional pDC

Sequence of TLR2 receptor (Mus musculus, UniProt Q9QUN7) (Q9QUN7 25-784): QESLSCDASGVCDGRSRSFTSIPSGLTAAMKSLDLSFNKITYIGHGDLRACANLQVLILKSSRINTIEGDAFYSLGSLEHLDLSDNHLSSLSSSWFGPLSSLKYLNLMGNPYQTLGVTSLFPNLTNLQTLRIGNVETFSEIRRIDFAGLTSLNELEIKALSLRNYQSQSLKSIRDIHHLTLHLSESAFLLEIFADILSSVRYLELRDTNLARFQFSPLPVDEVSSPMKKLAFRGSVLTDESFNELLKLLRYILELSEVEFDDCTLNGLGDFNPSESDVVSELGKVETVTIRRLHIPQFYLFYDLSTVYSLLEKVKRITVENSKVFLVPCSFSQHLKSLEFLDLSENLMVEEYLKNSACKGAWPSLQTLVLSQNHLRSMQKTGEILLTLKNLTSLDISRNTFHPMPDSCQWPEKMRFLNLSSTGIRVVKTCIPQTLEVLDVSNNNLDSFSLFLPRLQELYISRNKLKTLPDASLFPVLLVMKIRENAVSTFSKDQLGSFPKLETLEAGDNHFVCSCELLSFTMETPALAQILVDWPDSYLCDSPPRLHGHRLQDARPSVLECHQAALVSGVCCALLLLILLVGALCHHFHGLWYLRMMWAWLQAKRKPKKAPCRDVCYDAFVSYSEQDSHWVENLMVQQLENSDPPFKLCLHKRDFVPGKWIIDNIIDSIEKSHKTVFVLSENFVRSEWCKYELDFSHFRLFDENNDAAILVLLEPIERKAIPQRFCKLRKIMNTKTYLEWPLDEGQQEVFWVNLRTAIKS

B1: Rv1411c protein: His-labeled protein derived from M tuberculosis, confirmed as TLR2 agonist (protein, UniProt P9WK45 27-236, looked up)
Lipoarabinomannan carrier …: CSSGSKPSGGPLPDAKPLVEEATAQTKALKSAHMVLTVNGKIPGLSLKTLSGDLTTNPTAATGNVKLTLGGSDIDADFVVFDGILYATLTPNQWSDFGPAADIYDPAQVLNPDTGLANVLANFADAKAEGRDTINGQNTIRISGKVSAQAVNQIAPPFNATQPVPATVWIQETGDHQLAQAQLDRGSGNSVQMTLSKWGEKVQVTKPPVS
modifications: His tag
notes: His-labeled protein derived from M tuberculosis, confirmed as TLR2 agonist
**Q.** With B1 as the molecule, how does the “binding to TLR2 receptor” value [1] read?
**A.** binds to the TLR2 receptor

**Q.** And the “binding to wild-type dendritic cells (WT)” value [1]?
**A.** increased binding

**Q.** And the “binding strength to TLR2 knockout-derived dendritic cells (TLR2−/−)” value [2]?
**A.** the same as that in the untreated experimental group

**Q.** What about the “expression level of IFN-α” value [3] of the same molecule?
**A.** drastically reduced in a concentration-dependent manner

**Q.** What about the “expression level of IFN-β” value [3] of the same molecule?
**A.** drastically reduced in a concentration-dependent manner

**Q.** What about the “expression level of IL-10” value [3] of the same molecule?
**A.** marked increase in a concentration-dependent manner

**Q.** And the “expression level of IL-12p70” value [3]?
**A.** drastically reduced in a concentration-dependent manner

**Q.** And the “expression level of TNF-α” value [3]?
**A.** drastically reduced in a concentration-dependent manner
